Data set [1] deals with T1, NAD(P)H oxidoreductase (Npo) (Amphibacillus xylanus, UniProt K0J097).
T1 construct: recombinant from E. coli DE3, pET101 TOPO, reverse primer keeps native stop (primers encode N-terminus MAKDF, C-terminus CENFK); 23 kDa; 1 mol FMN per subunit
T1 sequence (K0J097 1-199): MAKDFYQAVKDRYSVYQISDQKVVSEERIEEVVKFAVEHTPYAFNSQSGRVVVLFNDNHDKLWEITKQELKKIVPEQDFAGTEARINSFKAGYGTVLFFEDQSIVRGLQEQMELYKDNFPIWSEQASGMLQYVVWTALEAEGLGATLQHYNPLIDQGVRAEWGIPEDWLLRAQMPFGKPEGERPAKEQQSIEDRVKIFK
Kind of data set: spectral analysis of FMN released from the protein by […] SDS. Type of data set: binding. Conditions: bound flavin cofactor, 1 mol FMN per subunit.

Data set [2] has as its target T1, NAD(P)H oxidoreductase (Npo). Nature of the data set: NADPH oxidation kinetics (details not told). The data set is classed as biochemical. The following applies: only an upper bound printed; conditions of this determination not told.
Substrate in the data set “purified protein”: Cc1cc2nc3c(=O)[nH]c(=O)nc-3n(C[C@H](O)[C@H](O)[C@H](O)COP(=O)(O)OP(=O)(O)OC[C@H]3O[C@@H](n4cnc5c(N)ncnc54)[C@H](O)[C@@H]3O)c2cc1C
Kind of data set: purified protein. The following applies: 50 mM sodium phosphate pH 7.0, 0.5 mM EDTA, 25 °C, FAD 15-150 μM as free substrate. Type of data set: biochemical, Amphibacillus xylanus.

The text below walks through data of article PMC5986008, “Intracellular free flavin and its associated enzymes participate in oxygen and iron metabolism in Amphibacillus xylanus lacking a respiratory chain” (FEBS Open Bio, 2018).

What is called Km is the concentration of substrate that gives half-maximal velocity. For orientation: kcat means the number of substrate molecules converted per active site and unit of time at saturation. By kcat/Km is commonly meant the turnover number divided by the Michaelis constant.

`Cc1cc2nc3c(=O)[nH]c(=O)nc-3n(C[C@H](O)[C@H](O)[C@H](O)COP(=O)(O)O)c2cc1C` [FMN]: the “spectral analysis of FMN released from the protein by 0.1% SDS” value in data set [1] is listed as “spectral analysis of free FMN, which was released from Npo protein”.

With `NC(=O)C1=CN([C@@H]2O[C@H](COP(=O)(O)OP(=O)(O)OC[C@H]3O[C@@H](n4cnc5c(N)ncnc54)[C@H](OP(=O)(O)O)[C@@H]3O)[C@@H](O)[C@H]2O)C=CC1` [NADPH], the Km in data set [2] is below 33 µM.

B1: NAD(P)H oxidoreductase (Npo) (Amphibacillus xylanus NBRC 15112) (protein)
chain: T1 sequence (K0J097 1-199)
notes: recombinant from E. coli DE3, pET101 TOPO, reverse primer keeps native stop (primers encode N-terminus MAKDF, C-terminus CENFK); 23 kDa; 1 mol FMN per subunit
Consider B1, for which, in the data set “purified protein” (150 μM NADPH), the Km was found to be 71 ± 10 µM, the kcat worked out at 1 ± 0.1 s⁻¹ and the kcat/Km amounted to 14000 ± 1000 M⁻¹ s⁻¹.

B2: NADH oxidase (Nox) (Amphibacillus xylanus NBRC 15112) (protein)
chain: MLDKDIKQQLEQYLALLENDIVIKVSVGDDKVSKDTLELVNEIADMSSMISVEETTLERTPSFSINRKGEPDSGVVFAGIPLGHEFTSLVLALLQVSGRAPKVEASVIDAIKKVEGKHDFVTYVSLTCQNCPDVVQALNLMSVVNPNITHTMVEGSAFKDEVDRLNILAVPSVYLNGEFMASGRMTIEDILGHLGSGIDASELNEKDPFDVLVIGGGPAGASSAIYAARKGIRVGIIADRFGGQVMDTLGIENFIGTKYTEGPKLISEIEQHVNEYNIDVMKGLRAHNIEKKDLFEVQLDNGAVLKSKTIILATGARWRDIGVPGEKEYKNKGVAYCTHCDAPLFEGKHVAVVGGGNSGIESALDLAGIVKHVTVFEFMSELKADAVLQERLRSLPNVDVILNAQTTEITGDETVKGISYIDRTTNEEKHVELQGAFIQIGLAPNTEWLGDTVERNQIGEIVIDKKGQTSVPGIFAAGDCTDTPYKQIIVSMGAGATAALGAFDYLLRN
Consider B2, for which, in “purified protein” (150 μM NADH), the Km is 37 ± 3 µM, the kcat was 91 ± 8 s⁻¹ and the kcat/Km came out at 2.42e+06 ± 74000 M⁻¹ s⁻¹.
